Consider one substance from paper PMC10906865.

For the assay, the target named is Human Herpes Simplex Virus glycoprotein D (Human Herpes Simplex Virus) (UniProt Q69091). Kind of assay: differential scanning calorimetry; peak height of the DSC thermogram of the pure protein compared with a DNA hairpin standard curve; ratio of the calorimetric concentration to the UV-Vis or dry-weight concentration read as stoichiometry; 150 mM NaCl, 10 mM potassium phosphate, 15 mM sodium citrate, pH 7.4; heating about 1°C/min.

Take “Human Herpes Simplex Virus glycoprotein D (from UniProt Q69091 26-394) (natural protein)”: the factor of the transition heat capacity over the average of the other molecules was 2.2 fold, the percent of dimers in the sample was determined as 35%, the percent of trimers in the sample was 65% and the stoichiometry N was 2.65.

One may read the stoichiometry N as the number of molecules, sites or subunits per partner or assembly.
